Measured values: paper PMC3488082 (The Journal of Biological Chemistry, 2012)
Where a chain is given by its changes, count along the chain named. Names may count otherwise.

Molecular target: the molecule itself
Assay: crystal structure

B1: Human aldehyde dehydrogenase-2 (ALDH2), wild-type (enzyme)
chain: SAAATQAVPAPNQQPEVFCNQIFINNEWHDAVSRKTFPTVNPSTGEVICQVAEGDKEDVDKAVKAARAAFQLGSPWRRMDASHRGRLLNRLADLIERDRTYLAALETLDNGKPYVISYLVDLDMVLKCLRYYAGWADKYHGKTIPIDGDFFSYTRHEPVGVCGQIIPWNFPLLMQAWKLGPALATGNVVVMKVAEQTPLTALYVANLIKEAGFPPGVVNIVPGFGPTAGAAIASHEDVDKVAFTGSTEIGRVIQVAAGSSNLKRVTLELGGKSPNIIMSDADMDWAVEQAHFALFFNQGQCCCAGSRTFVQEDIYDEFVERSVARAKSRVVGNPFDSKTEQGPQVDETQFKKILGYINTGKQEGAKLLCGGGIAADRGYFIQPTVFGDVQDGMTIAKEEIFGPVMQILKFKTIEEVVGRANNSTYGLAAAVFTKDLDKANYLSQALQAGTVWVNCYDVFGAQSPFGGYKMSGSGRELGEYGLQAYTEVKTVTVKVPQKNS
modifications: thionitrate adduct on Cys-302 (GTN-soaked crystal)
stoichiometry N: 4

B2: Human aldehyde dehydrogenase-2 (ALDH2) triple mutant E268Q/C301S/C303S (enzyme)
chain: B1 chain with E268Q, C301S, C303S
stoichiometry N: 4
